Our source for the stoichiometry N, Kd and percent reduction of virion binding to A549 cells values is paper PMC4335501.

The target in assay [1] is 52SFK R316E/N318A (human adenovirus type 52 (HAdV-52)). The assay can be described thus: gas-phase electrophoretic mobility molecular analysis (GEMMA); 20 mM ammonium acetate pH 7.8, 0.005% Tween 20; 0.05 mg/ml (52SFK wt, mutants 1-3) or 0.06 mg/ml (mutants 4-6).
In assay [2] the target is soluble CAR-D1. In words: SPR; CAR-D1D2 Fc chimera or CAR-D1 amine-coupled to CM5 (900-1100 RU); 52LFK or 52SFK as analytes, two-fold series 8 nM to 2 μM; 25°C; HBS-EP+ (10 mM HEPES, 150 mM NaCl, 3 mM EDTA, 0.005% P20, pH 7.4); Biacore T100. In general terms: SPR reads the build-up and loss of mass on a sensor chip optically.
For assay [3], the target named is Recombinant human CAR (CXADR Fc chimera; full length extracellular D1D2 domain) (human) (UniProt P78310). Described as above.
Assay [4] deals with 52SFK R316A (human adenovirus type 52 (HAdV-52)). The assay can be described thus: gas-phase electrophoretic mobility molecular analysis (GEMMA); 20 mM ammonium acetate pH 7.8, 0.005% Tween 20; 0.05 mg/ml (52SFK wt, mutants 1-3) or 0.06 mg/ml (mutants 4-6).
The target in assay [5] is HAdV-5 virion (Ad75; source ATCC). The assay can be described thus: radioligand binding; competition: soluble CAR-D1 preincubated with 35S-labelled virions for 1 h on ice before the virions were added to A549 cells; read-out is the cell-bound radioactivity; concentration of CAR-D1 not stated.
Assay [6] has as its target HAdV-52 virion (strain TB3-2243) (human adenovirus type 52 (HAdV-52)). The description is as above.
The target in assay [7] is HAdV-52 short fiber knob (human adenovirus type 52 (HAdV-52)). In words: gas-phase electrophoretic mobility molecular analysis (GEMMA); 20 mM ammonium acetate pH 7.8, 0.005% Tween 20; 0.05 mg/ml (52SFK wt, mutants 1-3) or 0.06 mg/ml (mutants 4-6).
For assay [8] the target is unchanged. In words: crystal structure; 52SFK crystals soaked with 20 mM 2-O-methyl sialic acid; 1.65 Å; threefold NCS.
Assay [9] concerns the target 52SFK R316E (human adenovirus type 52 (HAdV-52)). The assay can be described thus: gas-phase electrophoretic mobility molecular analysis (GEMMA); 20 mM ammonium acetate pH 7.8, 0.005% Tween 20; 0.05 mg/ml (52SFK wt, mutants 1-3) or 0.06 mg/ml (mutants 4-6).
In assay [10] the target is 52SFK N318A (human adenovirus type 52 (HAdV-52)). The assay is described as above.
The target in assay [11] is 52SFK R316A/N318A (human adenovirus type 52 (HAdV-52)). The description is as above.
The target in assay [12] is 52SFK N308E (human adenovirus type 52 (HAdV-52)). The assay is described as above.

Recombinant human CAR (CXADR Fc chimera; full length extracellular D1D2 domain) (human), sequence (P78310 20-237, stated change not applied): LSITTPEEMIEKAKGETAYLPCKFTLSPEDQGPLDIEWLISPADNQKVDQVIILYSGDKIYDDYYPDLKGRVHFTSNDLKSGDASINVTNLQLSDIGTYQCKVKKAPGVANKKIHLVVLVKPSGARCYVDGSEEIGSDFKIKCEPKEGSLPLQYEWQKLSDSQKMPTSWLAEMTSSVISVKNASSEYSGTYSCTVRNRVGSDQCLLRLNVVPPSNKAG

Usually stoichiometry N stands for the number of molecules, sites or subunits per partner or assembly. Substance 52SFK R316E/N318A (domain or fragment) registered a stoichiometry N in [1] of 3.

In general, Kd refers to the free concentration of one partner at which half of the binding sites on the other are occupied at equilibrium, for simple one-to-one binding. In the case of “HAdV-52 long fiber knob (domain or fragment)”, the Kd in assay [2] came to 2.6 nM; in assay [3], 5 nM. The substance 52SFK R316A (domain or fragment) yielded a stoichiometry N in [4] of 3. soluble CAR-D1 (domain or fragment): the percent reduction of virion binding to A549 cells in assay [5] is 50%; in assay [6], 20%.

With “HAdV-52 short fiber knob (domain or fragment)”, the stoichiometry N in assay [7] and in assay [8] was 3 throughout.

With 52SFK R316E (domain or fragment), in assay [9], the stoichiometry N came to 3.

In assay [10], 52SFK N318A (domain or fragment) returned a stoichiometry N of 3. Substance 52SFK R316A/N318A (domain or fragment) yielded a stoichiometry N in assay [11] of 3.

Take 52SFK N308E (domain or fragment): in assay [12], the stoichiometry N came out at 3.
